Measurements published in paper PMC9728131, “Host acid signal controls Salmonella flagella biogenesis through CadC-YdiV axis”.

T1: CadCc (Escherichia coli K-12 MG1655 (cloning template per Methods; text discusses Salmonella CadC)) (UniProt P23890)
T1 sequence: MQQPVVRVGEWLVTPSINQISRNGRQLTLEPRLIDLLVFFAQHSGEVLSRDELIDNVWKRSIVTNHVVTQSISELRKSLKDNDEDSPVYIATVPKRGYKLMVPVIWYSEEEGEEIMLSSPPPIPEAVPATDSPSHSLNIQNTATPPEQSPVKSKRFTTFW

T2: H-NS (Escherichia coli K-12 MG1655 (cloning …, UniProt P0ACF8 1-137))
T2 sequence: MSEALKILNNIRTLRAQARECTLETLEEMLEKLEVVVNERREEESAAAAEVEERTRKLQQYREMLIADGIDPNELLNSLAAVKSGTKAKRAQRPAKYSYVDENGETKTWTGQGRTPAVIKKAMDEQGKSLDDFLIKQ

B1: 19 nt overlap DNA of ydiV promoter (dsDNA)
DNA 1: TCATCATATATAATGATAT
DNA 2: ATATCATTATATATGATGA

Columns and labels:
[1] = molecular target: T1, CadCc (Escherichia coli K-12 MG1655 (cloning template per Methods; text discusses Salmonella CadC)); assay: BLI; details: EMSA: 20 mM Tris-HCl pH 8.0, 100 mM NaCl, 1 mM MgCl2, 1 mM ZnCl2, 4% glycerol, RT 10 min (competition 4 C, 30 min + 30 min); BLI: PBS + 1 mM ZnCl2 (CadCc …)
H-NS = molecular target: T2, H-NS; assay: BLI; PBS without ZnCl2; printed unit umoL; kdis 0.0145/s; EMSA: 20 mM Tris-HCl pH 8.0, 100 mM NaCl, 1 mM MgCl2, 1 mM ZnCl2, 4% glycerol, RT 10 min (competition 4 C, 30 min + 30 min); BLI: PBS + 1 mM ZnCl2 (CadCc, 50 ug/mL) or PBS (H-NS), 25 C; footprinting: 30 C, 30 min; details: protein: recombinant; tags: N-terminal 6xHis (pGL01); chain copies: 2; Methods: 'C-terminus'); blunt

Molecule | Kd [1] [µM] | Kd (H-NS) [µM]
TCATCATATATAATGATAT (double strand) [19 nt overlap DNA of ydiV promoter] | 0.203 | –
B1 | – | 0.533 ± 0.0127
